According to patent publication US8557971B2, “Chimeric viral envelopes” (Aarhus Universitet, priority 2006, dated 2013):

B1: SL3-2/apelin chimeric envelope polypeptide 'AP165 RT' (other)
chain: VQHDSPHQVFNVTWRVTNLMTGQTANATSLLGTMTDAFPKLYFDLCDLIGDDWDETGLGCRTPGGRKRARIFDFYVCPGHTVLAGCGGPREGYCGKWGCETTGQAYWKPSSSWDLISLKRGNTPKGQGPCYDSSGGSGQRPRLSHKGPMPFSGGSGSSSAQGATPGGRCNPLVLEFTDAGKRASWDASKAWGLRLYRSTRTDPVTRFSLTRQVLNIGPRVPIGPNPVIIDQLPPSRPVQVMLPRPPQPPPPGAASTVPETAPPSQQPGTGDRLLNLVNGAYQALNLTSPDKTQECWLCLVAGPPYYEGVAVLGTYSNHTSAPANCSVASQHKLTLSEVTGQGLCVGAVPKTHQALCNTTQKTSNGSYYLAAPAGTIWACNTGLTPCLSTTVLDLTTDYCVLVELWPKVTYHSPGYVYGQFEEKTKYKREPVSLTLALLLGGLTMGGIAAGVGTGTTALVATQQFQQLQAAMQDDLKEVEKSITNLERSLTSLSEVVLQNRRGLDLLFLKEGGLCAALKEECCFYADHTGLVRDSMAKLRERLSQRQKLFESQQGWFEGLFNKSPWFTTLISTIMGPLIILLLILLFGPCILNHLVQFIKDRVSVVQALVLTQQYHQLKTIEDCESRE
B2: SL3-2/apelin chimeric envelope AP@165 GI (other)
chain: VQHDSPHQVFNVTWRVTNLMTGQTANATSLLGTMTDAFPKLYFDLCDLIGDDWDETGLGCRTPGGRKRARIFDFYVCPGHTVLAGCGGPREGYCGKWGCETTGQAYWKPSSSWDLISLKRGNTPKGQGPCYDSSGGSGQRPRLSHKGPMPFSGGSGSSSAQGATPGGRCNPLVLEFTDAGKRASWDASKAWGLRLYRSTGIDPVTRFSLTRQVLNIGPRVPIGPNPVIIDQLPPSRPVQVMLPRPPQPPPPGAASTVPETAPPSQQPGTGDRLLNLVNGAYQALNLTSPDKTQECWLCLVAGPPYYEGVAVLGTYSNHTSAPANCSVASQHKLTLSEVTGQGLCVGAVPKTHQALCNTTQKTSNGSYYLAAPAGTIWACNTGLTPCLSTTVLDLTTDYCVLVELWPKVTYHSPGYVYGQFEEKTKYKREPVSLTLALLLGGLTMGGIAAGVGTGTTALVATQQFQQLQAAMQDDLKEVEKSITNLERSLTSLSEVVLQNRRGLDLLFLKEGGLCAALKEECCFYADHTGLVRDSMAKLRERLSQRQKLFESQQGWFEGLFNKSPWFTTLISTIMGPLIILLLILLFGPCILNHLVQFIKDRVSVVQALVLTQQYHQLKTIEDCESRE
B3: SL3-2/apelin chimeric envelope peptide, "Apelin@155 RT" (other)
chain: VQHDSPHQVFNVTWRVTNLMTGQTANATSLLGTMTDAFPKLYFDLCDLIGDDWDETGLGCRTPGGRKRARIFDFYVCPGHTVLAGCGGPREGYCGKWGCETTGQAYWKPSSSWDLISLKRGNTQGIYQCSGGSGQRPRLSHKGPMPFSGGSGCGPCYDSSVVSSSAQGATPGGRCNPLVLEFTDAGKRASWDASKAWGLRLYRSTRTDPVTRFSLTRQVLNIGPRVPIGPNPVIIDQLPPSRPVQVMLPRPPQPPPPGAASTVPETAPPSQQPGTGDRLLNLVNGAYQALNLTSPDKTQECWLCLVAGPPYYEGVAVLGTYSNHTSAPANCSVASQHKLTLSEVTGQGLCVGAVPKTHQALCNTTQKTSNGSYYLAAPAGTIWACNTGLTPCLSTTVLDLTTDYCVLVELWPKVTYHSPGYVYGQFEEKTKYKREPVSLTLALLLGGLTMGGIAAGVGTGTTALVATQQFQQLQAAMQDDLKEVEKSITNLERSLTSLSEVVLQNRRGLDLLFLKEGGLCAALKEECCFYADHTGLVRDSMAKLRERLSQRQKLFESQQGWFEGLFNKSPWFTTLISTIMGPLIILLLILLFGPCILNHLVQFIKDRVSVVQALVLTQQYHQLKTIEDCESRE
B4: AP@155: SL3-2 envelope with apelin inserted at position 155 (variant not specified) (protein)
chain: VQHDSPHQVFNVTWRVTNLMTGQTANATSLLGTMTDAFPKLYFDLCDLIGDDWDETGLGCRTPGGRKRARIFDFYVCPGHTVLAGCGGPREGYCGKWGCETTGQAYWKPSSSWDLISLKRGNTQGIYQCSGGSGQRPRLSHKGPMPFSGGSGCGPCYDSSVVSSSAQGATPGGRCNPLVLEFTDAGKRASWDASKAWGLRLYRSTGIDPVTRFSLTRQVLNIGPRVPIGPNPVIIDQLPPSRPVQVMLPRPPQPPPPGAASTVPETAPPSQQPGTGDRLLNLVNGAYQALNLTSPDKTQECWLCLVAGPPYYEGVAVLGTYSNHTSAPANCSVASQHKLTLSEVTGQGLCVGAVPKTHQALCNTTQKTSNGSYYLAAPAGTIWACNTGLTPCLSTTVLDLTTDYCVLVELWPKVTYHSPGYVYGQFEEKTKYKREPVSLTLALLLGGLTMGGIAAGVGTGTTALVATQQFQQLQAAMQDDLKEVEKSITNLERSLTSLSEVVLQNRRGLDLLFLKEGGLCAALKEECCFYADHTGLVRDSMAKLRERLSQRQKLFESQQGWFEGLFNKSPWFTTLISTIMGPLIILLLILLFGPCILNHLVQFIKDRVSVVQALVLTQQYHQLKTIEDCESRE
B5: 155GI (protein)
chain: VQHDSPHQVFNVTWRVTNLMTGQTANATSLLGTMTDAFPKLYFDLCDLIGDDWDETGLGCRTPGGRKRARIFDFYVCPGHTVLAGCGGPREGYCGKWGCETTGQAYWKPSSSWDLISLKRGNTQGIYQCSGGSGQRPRLSHKGPMPFSGGSGCGPCYDSSVVSSSAQGATPGGRCNPLVLEFTDAGKRASWDASKAWGLRLYRSTGIDPVTRFSLTRQVLNIGPRVPIGPNPVIIDQLPPSRPVQVMLPRPPQPPPPGAASTVPETAPPSQQPGTGDRLLNLVNGAYQALNLTSPDKTQECWLCLVAGPPYYEGVAVLGTYSNHTSAPANCSVASQHKLTLSEVTGQGLCVGAVPKTHQALCNTTQKTSNGSYYLAAPAGTIWACNTGLTPCLSTTVLDLTTDYCVLVELWPKVTYHSPGYVYGQFEEKTKYKREPVSLTLALLLGGLTMGGIAAGVGTGTTALVATQQFQQLQAAMQDDLKEVEKSITNLERSLTSLSEVVLQNRRGLDLLFLKEGGLCAALKEECCFYADHTGLVRDSMAKLRERLSQRQKLFESQQGWFEGLFNKSPWFTTLISTIMGPLIILLLILLFGPCILNHLVQFIKDRVSVVQALVLTQQYHQLKTIEDCESRE
B6: SL3-2/apelin chimeric envelope peptide, "Apelin@155 GI" (other)
chain: VQHDSPHQVFNVTWRVTNLMTGQTANATSLLGTMTDAFPKLYFDLCDLIGDDWDETGLGCRTPGGRKRARIFDFYVCPGHTVLAGCGGPREGYCGKWGCETTGQAYWKPSSSWDLISLKRGNTQGIYQCSGGSGQRPRLSHKGPMPFSGGSGCGPCYDSSVVSSSAQGATPGGRCNPLVLEFTDAGKRASWDASKAWGLRLYRSTGIDPVTRFSLTRQVLNIGPRVPIGPNPVIIDQLPPSRPVQVMLPRPPQPPPPGAASTVPETAPPSQQPGTGDRLLNLVNGAYQALNLTSPDKTQECWLCLVAGPPYYEGVAVLGTYSNHTSAPANCSVASQHKLTLSEVTGQGLCVGAVPKTHQALCNTTQKTSNGSYYLAAPAGTIWACNTGLTPCLSTTVLDLTTDYCVLVELWPKVTYHSPGYVYGQFEEKTKYKREPVSLTLALLLGGLTMGGIAAGVGTGTTALVATQQFQQLQAAMQDDLKEVEKSITNLERSLTSLSEVVLQNRRGLDLLFLKEGGLCAALKEECCFYADHTGLVRDSMAKLRERLSQRQKLFESQQGWFEGLFNKSPWFTTLISTIMGPLIILLLILLFGPCILNHLVQFIKDRVSVVQALVLTQQYHQLKTIEDCESRE

What was measured:
[1] = molecular target: APJ (Homo sapiens (Human), UniProt P35414); assay: cell-based or functional assay
[2] = molecular target: polytropic Xpr1 receptor on NIH3T3 murine cells (murine, UniProt Q9Z0U0); assay: cell-based or functional assay
[3] = system: NIH 3T3 MCF 247; assay: Titer on NIH 3T3 cells infected with MCF 247 (blocked polytropic receptor); type: cell-based, mouse; conditions: Titer Experiment 1; NIH 3T3 infected with MCF 247
Experimental: FIG. 24. The SL3-2 chimeric envelopes can use two different receptors. […] NIH3T3: Murine cells, NIH3T3+MCF247: murine cells infected with MCF247, thus having a blocked polytropic receptor, D17: Dog cells, D17-APJ: Dog cells expressing APJ, D17-APJ-6 uM Apelin 13: Dog cells expressing APJ incubated with 6 uM apelin-13 peptide for 1 h.
(§1) Transfections were done by calcium phosphate precipitation method, described by Graham and van der Eb (Graham and van der Eb, 1973) leaving the calcium precipitate on the cells for 24 hours. 293T cells were transfected using 8 μg of envelope expression plasmid, 2 μg gagpol expression plasmid (Morita et al., 2000) and 1 μg of an EGFP expressing plasmid. EGFP was included as a visual aid to determine the success of transfections. Medium on the transfected cells was renewed every day until it was used for transduction, usually between 48 and 72 hours after transfection, depending on the number of green fluorescing cells.
(§2) The day before transduction, medium was changed from fetal calf serum to newborn calf serum containing medium. Semi-packaging cells (Bahrami et al., 2003) were seeded at concentration of 10^4 cells/cm^2 24 hours before transduction.
Supernatant from transfected cells was filtered (0.22μ). The supernatant with 6 μg/mL polybrene was added to the target cells. […]

[4] = system: D17; assay: Titer on D17 dog cells; type: cell-based; conditions: Titer Experiment 1; D17 dog cells
Experimental: as §1, §2
(§3) Supernatant from transfected cells was filtered (0.22μ). The supernatant with 6 μg/mL polybrene was added to the target cells. 24 hours later, the infected cells were selected using medium described before containing 600 μg/mL G418 for 10 days.

[5] = system: NIH 3T3; assay: Titer (transduction) of chimeric envelope constructs on NIH 3T3 cells; type: cell-based, mouse; conditions: Titer Experiment 1; NIH 3T3 mouse cells
Experimental: as §1, §2, §3

[6] = system: D17 APJ; assay: Titer on D17 cells expressing APJ; type: cell-based, dog; conditions: for Titer, D17 APJ: Titer Experiment 1, D17 cells expressing APJ
Experimental: as §1, §2, §3
The ability of redirecting the retroviral fusion machinery to a desired receptor would have wide biotechnological and potentially also nanotechnological applications. However, the regulatory mechanisms that interconnect receptor binding with fusion are poorly understood, which has made intelligent engineering of the envelope protein difficult. […] Using the envelope protein of the SL3-2 murine leukemia virus isolate (Pedersen et al., 1981) as a backbone and insertion of the 13 amino acid peptide ligand apelin by structure based design, we achieved efficient membrane fusion in a manner dependent upon APJ, the receptor for apelin (Fan et al., 2003; Kawamata et al., 2001) (FIG. 12). APJ belongs to the large family of G-protein-coupled receptors (GPCRs) involved in cell signaling with more than 1000 members in man (Puffer et al., 2000). All GPCRs are characterized by having 7 transmembrane helices (7-TM). Some of the receptors respond to peptide ligands such as apelin. […]

| Molecule | Titer on D17 APJ (Titer Experiment 1; unit not given) [1] | Titer on NIH 3T3 (Titer Experiment 1; unit not given) [2] | Titer, NIH 3T3 MCF 247 [3] | Titer, D17 [4] | Titer, NIH 3T3 [5] | Titer, D17 APJ [6] | APJ-dependent entry / membrane fusion into D17 dog cells ([6]; qualitative, FIG. 12) |
| --- | --- | --- | --- | --- | --- | --- | --- |
| B1 | 2.5e+06 | 3e+06 |  |  |  |  |  |
| B2 | 1.25e+06 | 4e+06 | 0 | 1.25 × 10^1 | 4 × 10^6 | 1.25 × 10^6 |  |
| B3 | 1750 | 500000 |  |  |  |  |  |
| B4 |  |  |  |  |  |  | suboptimal relative to AP@165 |
| B5 |  |  | 0.25 × 10^1 | 2.5 | 7.5 × 10^5 | 4 × 10^2 |  |
| B6 | 400 | 750000 |  |  |  |  |  |
